Experimental data reported in US20220025023A1 (AC IMMUNE, published 2022).
Where no end group is shown, it is not given here.

Key:
TDP-211 peptide = biological target: T1, TDP-211 peptide (human); test: indirect ELISA, 8-mer peptide library
T1 construct: 8-mer of human TDP-43; same ELISA method as for the biotinylated 15-mers
T1 peptide: FSQYGDVM
Method: (§1) Serum-free supernatants were harvested from stable hybridomas. The supernatants containing antibodies of interest were then screened by an indirect ELISA assay to determine epitopes. Epitopes were mapped using a library of TDP-43 15-mer peptides. Briefly, 96-well streptavidin-coated 96-well ELISA plates were incubated with 5 μg/mL of biotinylated 15-mer peptides spanning the amino acids (aa) 199-285 of human TDP-43 with 9 aa offset and 6 aa overlap. Plates were washed thoroughly with 0.05% Tween-20/PBS and then blocked with 1% bovine serum albumin (BSA) in 0.05% Tween-20/PBS for 1 hour at 37° C. The antibody contained in the hybridoma supernatant was then added at the indicated dilutions, and incubated for 2 hours at 37° C. after which the plates were washed as described previously. An AP-conjugated anti-mouse IgG secondary antibody (Jackson ImmunoResearch Laboratories, United Kingdom) was added at 1/1000 dilution in 0.05% Tween-20/PBS for 1 hour at 37° C. After the final wash, plates were incubated with pNPP (Sigma-Aldrich, Switzerland) an AP substrate solution, and read at 405 nm using an ELISA plate reader (Tecan).
(§2) Furthermore, antibodies were tested using an indirect ELISA on a peptide library of 8-mer peptides with 7 aa overlap covering the sequence of human TDP-43 from aa 210 to aa 231, using the same ELISA method as describe previously in this section.

TDP-217 peptide = biological target: T2, TDP-217 peptide (human); test: indirect ELISA, 8-mer peptide library
T2 construct: 8-mer of human TDP-43; same ELISA method as for the biotinylated 15-mers
T2 peptide: VMDVFIPK
Method: as §1, §2

TDP-212 peptide = biological target: T3, TDP-212 peptide (human); test: indirect ELISA, 8-mer peptide library
T3 construct: 8-mer of human TDP-43; same ELISA method as for the biotinylated 15-mers
T3 peptide: SQYGDVMD
Method: as §1, §2

TDP-222 peptide = biological target: T4, TDP-222 peptide (human); test: indirect ELISA, 8-mer peptide library
T4 construct: 8-mer of human TDP-43; same ELISA method as for the biotinylated 15-mers
T4 peptide: IPKPFRAF
Method: as §1, §2

TDP-221 peptide = biological target: T5, TDP-221 peptide (human); test: indirect ELISA, 8-mer peptide library
T5 construct: 8-mer of human TDP-43; same ELISA method as for the biotinylated 15-mers
T5 peptide: FIPKPFRA
Method: as §1, §2

TDP-218 peptide = biological target: T6, TDP-218 peptide (human); test: indirect ELISA, 8-mer peptide library
T6 construct: 8-mer of human TDP-43; same ELISA method as for the biotinylated 15-mers
T6 peptide: MDVFIPKP
Method: as §1, §2

TDP-216 peptide = biological target: T7, TDP-216 peptide (human); test: indirect ELISA, 8-mer peptide library
T7 construct: 8-mer of human TDP-43; same ELISA method as for the biotinylated 15-mers
T7 peptide: DVMDVFIP
Method: as §1, §2

TDP-223 peptide = biological target: T8, TDP-223 peptide (human); test: indirect ELISA, 8-mer peptide library
T8 construct: 8-mer of human TDP-43; same ELISA method as for the biotinylated 15-mers
T8 peptide: PKPFRAFA
Method: as §1, §2

TDP-219 peptide = biological target: T9, TDP-219 peptide (human); test: indirect ELISA, 8-mer peptide library
T9 construct: 8-mer of human TDP-43; same ELISA method as for the biotinylated 15-mers
T9 peptide: DVFIPKPF
Method: as §1, §2

TDP-214 peptide = biological target: T10, TDP-214 peptide (human); test: indirect ELISA, 8-mer peptide library
T10 construct: 8-mer of human TDP-43; same ELISA method as for the biotinylated 15-mers
T10 peptide: YGDVMDVF
Method: as §1, §2

TDP-220 peptide = biological target: T11, TDP-220 peptide (human); test: indirect ELISA, 8-mer peptide library
T11 construct: 8-mer of human TDP-43; same ELISA method as for the biotinylated 15-mers
T11 peptide: VFIPKPFR
Method: as §1, §2

TDP-224 peptide = biological target: T12, TDP-224 peptide (human); test: indirect ELISA, 8-mer peptide library
T12 construct: 8-mer of human TDP-43; same ELISA method as for the biotinylated 15-mers
T12 peptide: KPFRAFAF
Method: as §1, §2

TDP-213 peptide = biological target: T13, TDP-213 peptide (human); test: indirect ELISA, 8-mer peptide library
T13 construct: 8-mer of human TDP-43; same ELISA method as for the biotinylated 15-mers
T13 peptide: QYGDVMDV
Method: as §1, §2

TDP-210 peptide = biological target: T14, TDP-210 peptide (human); test: indirect ELISA, 8-mer peptide library
T14 construct: 8-mer of human TDP-43; same ELISA method as for the biotinylated 15-mers
T14 peptide: FFSQYGDV
Method: as §1, §2

TP-23 = biological target: T15, TP-23 (also: biotinylated, site not given here); test: indirect ELISA, biotinylated 15-mer on streptavidin plate, hybridoma supernatant
T15 construct: also called TP-23 peptide
T15 peptide: TEDMTEDELREFFSQ
Method: as §1

TP-30 = biological target: T16, TP-30 (also: biotinylated, site not given here); test: as above
T16 construct: also called TP-30 peptide
T16 peptide: PKHNSNRQLERSGRF
Method: as §1

TP-28 = biological target: T17, TP-28 (also: biotinylated, site not given here); test: as above
T17 construct: also called TP-28 peptide
T17 peptide: CGEDLIIKGISVHIS
Method: as §1

TP-29 = biological target: T18, TP-29 (also: biotinylated, site not given here); test: as above
T18 construct: also called TP-29 peptide
T18 peptide: ISVHISNAEPKHNSN
Method: as §1

TP-27 = biological target: T19, TP-27 (also: biotinylated, site not given here); test: as above
T19 construct: also called TP-27 peptide
T19 peptide: ADDQIAQSLCGEDLI
Method: as §1

TP-25 peptide = biological target: T20, TP-25 peptide (human, also: biotinylated, site not given here); test: indirect ELISA, biotinylated 15-mer peptide on streptavidin plate, hybridoma supernatant
T20 construct: 15-mer of human TDP-43 from the library spanning aa 199-285; captured on streptavidin plates
T20 peptide: VMDVFIPKPFRAFAF
Method: as §1

TP-24 peptide = biological target: T21, TP-24 peptide (human, also: biotinylated, site not given here); test: as above
T21 construct: 15-mer of human TDP-43 from the library spanning aa 199-285; captured on streptavidin plates
T21 peptide: REFFSQYGDVMDVFI
Method: as §1

[1] = biological target: T22, recombinant human full-length TDP-43 (human, UniProt Q13148 1-414); test: SPR affinity (Biacore 8K), antibody captured on anti-mouse IgG, TDP-43 monomer as analyte, single cycle kinetics, 1:1 model
T22 construct: Recombinant full-length protein; also called FL TDP-43; recFL TDP-43
Method: Binding affinity to FL TDP-43 was evaluated by determining the dissociation constant (KD) using surface plasmon resonance (SPR; Biacore 8K, GE Healthcare Life Sciences). Anti-mouse IgG was immobilized on a CM5 Series S sensor chip (GE Healthcare Life Sciences) by amine coupling. Immobilization of andi-IgG was done at a concentration of 30 μg/ml in 10 mM sodium acetate (pH 5.5) with a flow rate of 10 μl/min for 500 s. The purified antibodies being tested, and the control antibody (2E2-D3), were injected at a concentration of 1 μg/ml at a flow rate of 10 μl/min for 500 s in 10 mM Na-acetate (pH 5.5). To evaluate KDs, recombinant human FL TDP-43 monomer analyte was injected at […] starting from 400 nM and diluting down to 1.6 nM using single cycle kinetics. The protein analyte was injected at a flow rate of 20 μl/min for 600 s contact time and a 1200 s dissociation phase, without intermediate regeneration steps. Result obtained from kinetics was evaluated using a 1:1 binding model analysis.

T22 sequence (Q13148 whole entry): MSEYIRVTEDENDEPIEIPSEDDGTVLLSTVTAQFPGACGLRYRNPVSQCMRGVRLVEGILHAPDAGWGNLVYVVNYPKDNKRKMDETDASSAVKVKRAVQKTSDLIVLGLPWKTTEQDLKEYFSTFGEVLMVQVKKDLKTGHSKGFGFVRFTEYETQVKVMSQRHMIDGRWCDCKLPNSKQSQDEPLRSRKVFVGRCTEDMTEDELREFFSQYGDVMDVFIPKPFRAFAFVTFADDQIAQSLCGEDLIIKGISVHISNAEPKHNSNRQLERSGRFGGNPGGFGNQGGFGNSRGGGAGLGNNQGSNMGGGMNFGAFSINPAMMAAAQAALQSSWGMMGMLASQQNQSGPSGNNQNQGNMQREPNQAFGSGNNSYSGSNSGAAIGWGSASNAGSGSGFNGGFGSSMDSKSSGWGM

| Binder | binding result (TDP-211 peptide) | binding result (TDP-217 peptide) | binding result (TDP-212 peptide) | binding result (TDP-222 peptide) | binding result (TDP-221 peptide) | binding result (TDP-218 peptide) | binding result (TDP-216 peptide) | binding result (TDP-223 peptide) | binding result (TDP-219 peptide) | binding result (TDP-214 peptide) | binding result (TDP-220 peptide) | binding result (TDP-224 peptide) | binding result (TDP-213 peptide) | binding result (TDP-210 peptide) | binding result (TP-23) | binding result (TP-30) | binding result (TP-28) | binding result (TP-29) | binding result (TP-27) | OD (TP-25 peptide) | other results |
| --- | --- | --- | --- | --- | --- | --- | --- | --- | --- | --- | --- | --- | --- | --- | --- | --- | --- | --- | --- | --- | --- |
| ACI-7062-406E3-Ab1 (antibody, IgG2a, V domains shown, also called 406E3D5; clone 5) VH: QVTLKESGPAILQPSQTLSLTCSFSGFSLTTYGIGVGWIRQPSGKGLEWLAHIWWNDNKYYNTALKSRLTVSKDTSNNQVFLKIASVDTADTATYYCARVYGNLYYFAYWGQGTTLTVSS VL: DVLMTQTPLSLPVSLGDRASISCRSSQSIVHRSGNTYLEWYLQKPGQSPKLLIYKVSNRFSGVPDRFSGSGSGTDFTLKISRVEAEDLGVYYCFQGSHVPTFGAGTKLELKR | no binding | no binding | no binding | no binding | no binding | no binding | no binding | no binding | no binding | no binding | no binding | no binding | no binding | no binding | no binding | no binding | no binding | no binding | no binding | 1 O.D. (405 nm) | OD (TP-24 peptide): 3 O.D. (405 nm); Kd [1]: 193 nM |
| ACI-7062-406E3-Ab2 (antibody, IgG2a, V domains shown, also called 406E3G10; clone 6) VH: QVTLKESGPAILQPSQTLSLTCSFSGFSLTTYGIGVGWIRQPSGKGLEWLAHIWWNDNKYYNTALKSRLTVSKDTSNNQVFLKIASVDTADTATYYCARVYGNLYYFAYWGQGTTLTVSS VL: DVLMTQTPLSLPVSLGDRASISCRSSQSIVHRSGNTYLEWYLQKPGQSPKLLIYKVSNRFSGVPDRFSGSGSGTDFTLKISRVEAEDLGVYYCFQGSHVPTFGAGTKLELKR | no binding | no binding | no binding | no binding | no binding | no binding | no binding | no binding | no binding | no binding | no binding | no binding | no binding | no binding | no binding | no binding | no binding | no binding | no binding | 0.9 O.D. (405 nm) | OD (TP-24 peptide): 3.4 O.D. (405 nm); Kd [1]: 101 nM |
